The results in this text go back to US20090035321A1, “Intercellular adhesion molecules and their binding ligands” (Boehringer Ingelheim Pharmaceuticals, Inc., published 2009).

In one assay the target is ICAM-1 Q1/K (human, UniProt P05362). The experiment in a line: COS cells on LFA-1 coated plastic.
In assay [1] the target is ICAM-1 N269QSQI/IQAEQ (human) (UniProt P05362). The experiment in a line: COS cells on LFA-1 coated plastic.
In the next assay the target is ICAM-1 D229QR/HLE (human, UniProt P05362). Description: COS cells on LFA-1 coated plastic.
Another assay has as its target ICAM-1 R125/E (human, UniProt P05362). The experiment in a line: COS cells on LFA-1 coated plastic.
The target of a further assay is ICAM-1 R13/Q (human, UniProt P05362). The experiment in a line: COS cells on LFA-1 coated plastic.
For the next assay, the target named is ICAM-1 V136GE/GVK (human, UniProt P05362). Description: COS cells on LFA-1 coated plastic.
In assay [2] the target is Intercellular Adhesion Molecule-1 (ICAM-1), wild type, on the cell surface (human) (UniProt P05362). The experiment in a line: COS cells on LFA-1 coated plastic.
For another assay, the target named is ICAM-1 E90/K (human, UniProt P05362). Description: COS cells on LFA-1 coated plastic.
Another assay addresses ICAM-1 D203TQ/TAD (human, UniProt P05362). Description: COS cells on LFA-1 coated plastic.
The target of the next assay is ICAM-1 E254DE/KEK (human, UniProt P05362). Description: COS cells on LFA-1 coated plastic.
The target in a further assay is ICAM-1 E87/K (human, UniProt P05362). The experiment in a line: COS cells on LFA-1 coated plastic.
Another assay has as its target ICAM-1 Q58EDS/AKDI (human, UniProt P05362). The experiment in a line: COS cells on LFA-1 coated plastic.
The target of another assay is ICAM-1 Y52/F (human, UniProt P05362). The experiment in a line: COS cells on LFA-1 coated plastic.
Assay [3] concerns the target T1, ICAM-1 G15/SA (human, UniProt P05362). Description: COS cells on LFA-1 coated plastic.
In a further assay the target is ICAM-1 S3VS/AGL (human, UniProt P05362). The experiment in a line: COS cells on LFA-1 coated plastic.
Another assay concerns the target ICAM-1 G101K/AN (human, UniProt P05362). Description: 35S-HRV14 on COS cells. The protocol:
(§1) COS cells were seeded into 10 cm tissue culture plates such that they would be 50% confluent by 16-24 hrs. COS cells were then washed once with TBS and incubated for 4 hrs with 4 ml RPMI containing 10% Nu sera (Collaborative) 5 pg/ml chloroquine, 3 μg of mutant plasmid and 200 μg/ml DEAE-dextran sulfate. Cells were then washed with 10% DMSO/PBS followed by PBS and cultured 16 hrs in culture media. Culture media was replaced with fresh media and at 48 hrs post transfection (OS cells were suspended by trypsin/EDTA (Gibco) treatment and divided into 2, 10 cm plates as well as 24 well tissue culture plates for HRV binding. At 72 hrs cells were harvested from 10 cm plates with 5 mM EDTA/HBSS and processed for adhesion to LFA-1 coated plastic and immunofluorescence.
(§2) Binding occurred in 1 hr at 35° C. in a 5% CO₂ atmosphere with horizontal rotation (100 rpm). Unbound [³⁵S] HRV14 was aspirated, COS cells were gently washed with 150 ml of HRV buffer and then solubilized with 1% SDS in PBS for scintillation counting.
(§3) In Table 25, the notation for the mutations uses the one-letter code for the wild-type sequence followed by a slash and the one-letter code for the corresponding mutant sequence. The position of the first amino acid within the sequence is indicated. Wild type residues precede the slash followed by the residues they were substituted for in the mutant. COS cells expressing ICAM-1 mutants were tested for adherence to LFA-1 coated plastic and for binding 35S met-labeled HRV14. […] Binding is presented as mean and standard error (SE) for multiple experiments (n). […] The specific linear fluorescence intensity (SLFI) of CL203 for each mutant is normalized to that of wild type CL203 SLFI (% WT) as discussed above. The SLFI of RR1/1, R6.5 and LB-2 SLFI is normalized to the CL203 SLFI of the mutant (% CL203) as described above.

The target in another assay is ICAM-1 K77T/ES (human, UniProt P05362). Description: 35S-HRV14 on COS cells. The protocol: as §1, §2, §3
The next assay concerns the target ICAM-1 T75/A (human, UniProt P05362). Description: 35S-HRV14 on COS cells. Here is the method:
as §1, §2, §3

For another assay, the target named is ICAM-1 D71GQS/NGEL (human, UniProt P05362). The experiment in a line: 35S-HRV14 on COS cells. The protocol: as §1, §2, §3
A further assay has as its target ICAM-1 A189T/SI (human, UniProt P05362). Description: 35S-HRV14 on COS cells. The protocol:
as §1, §2, §3

The target in another assay is ICAM-1 Q73/H (human, UniProt P05362). Description: 35S-HRV14 on COS cells. Here is the method: as §1, §2, §3
The next assay has as its target ICAM-1 R88V/EA (human, UniProt P05362). Description: 35S-HRV14 on COS cells. Here is the method: as §1, §2, §3
A further assay deals with ICAM-1 Y66/T (human, UniProt P05362). The experiment in a line: 35S-HRV14 on COS cells. The protocol: as §1, §2, §3
Another assay deals with ICAM-1 E59/K (human, UniProt P05362). The experiment in a line: 35S-HRV14 on COS cells. The protocol: as §1, §2, §3
The next assay has as its target ICAM-1 Y52/FA (human, UniProt P05362). Description: 35S-HRV14 on COS cells. Here is the method:
as §1, §2, §3

For another assay, the target named is ICAM-1 R13/E (human, UniProt P05362). Description: 35S-HRV14 on COS cells. Here is the method:
as §1, §2, §3

The next assay has as its target ICAM-1 Q62PM/API (human, UniProt P05362). Description: 35S-HRV14 on COS cells. The protocol:
as §1, §2, §3

The target of another assay is ICAM-1 T20CS/ACT (human, UniProt P05362). Description: 35S-HRV14 on COS cells. Here is the method: as §1, §2, §3
The target of another assay is ICAM-1 S61/I (human, UniProt P05362). Description: 35S-HRV14 on COS cells. The protocol:
as §1, §2, §3

In a further assay the target is ICAM-1 K8/E (human, UniProt P05362). The experiment in a line: 35S-HRV14 on COS cells. The protocol: as §1, §2, §3
Assay [4] addresses T1, ICAM-1 G15/SA. The experiment in a line: 35S-HRV14 on COS cells. The protocol: as §1, §2, §3

On to “purified LFA-1, bound to plastic (from UniProt P20701) (receptor)”, for which the LFA-1 Binding % (% of wild type) came out at 97 with ICAM-1 Q1/K; 101 in assay [1]; 90 in the assay with ICAM-1 D229QR/HLE; 81 with ICAM-1 R125/E; 78 in the assay with ICAM-1 R13/Q; 92 with ICAM-1 V136GE/GVK. The LFA-1 Binding % (% of wild type) with ICAM-1 E90/K worked out at 34; in the assay with ICAM-1 D203TQ/TAD, 91; with ICAM-1 E254DE/KEK it was 122; with ICAM-1 E87/K it was 65; with ICAM-1 Q58EDS/AKDI, 3; with ICAM-1 Y52/F, 72. Further, the LFA-1 Binding % (% of wild type) with ICAM-1 G15/SA [3] was found to be 120; with ICAM-1 S3VS/AGL, 18. The % of COS cells bound (mean) in [2] worked out at 33%.

B1: human rhinovirus 14 (HRV14) (other)
chain: GAQVSTQKSGSHENQNILTNGSNQTFTVINYYKDAASTSSAGQSLSMDPSKFTEPVKDLMLKGAPALNSPNVEACGYSDRVQQITLGNSTITTQEAANAVVCYAEWPEYLPDVDASDVNKTSKPDTSVCRFYTLDSKTWTTGSKGWCWKLPDALKDMGVFGQNMFFHSLGRSGYTVHVQCNATKFHSGCLLVVVIPEHQLASHEGGNVSVKYTFTHPGERGIDLSSANEVGGPVKDVIYNMNGTLLGNLLIFPHQFINLRTNNTATIVIPYINSVPIDSMTRHNNVSLMVIPIAPLTVPTGATPSLPITVTIAPMCTEFSGIRSKSIVPQGLPTTTLPGSGQFLTTDDRQSPSALPNYEPTPRIHIPGKVHNLLEIIQVDTLIPMNNTHTKDEVNSYLIPLNANRQNEQVFGTNLFIGDGVFKTTLLGEIVQYYTHWSGSLRFSLMYTGPALSSAKLILAYTPPGARGPQDRREAMLGTHVVWDIGLQSTIVMTIPWTSGVQFRYTDPDTYTSAGFLSCWYQTSLILPPETTGQVYLLSFISACPDFKLRLMKDTQTISQTVALTEGLGDELEEVIVEKTKQTVASISSGPKHTQKVPILTANETGATMPVLPSDSIETRTTYMHFNGSETDVECFLGRAACVHVTEIQNKDATGIDNHREAKLFNDWKINLSSLVQLRKKLELFTYVRFDSEYTILATASQPDSANYSSNLVVQAMYVPPGAPNPKEWDDYTWQSASNPSVFFKVGDTSRFSVPYVGLASAYNCFYDGYSHDDAETQYGITVLNHMGSMAFRIVNEHDEHKTLVKIRVYHRAKHVEAWIPRAPRALPYTSIGRTNYPKNTEPVIKKRKGDIKSY
modifications: [35S]-Met labeled
B1: the “HRV Binding %” value was 140 % of wild type with ICAM-1 G101K/AN; 42 % of wild type with ICAM-1 K77T/ES; 119 % of wild type in the assay with ICAM-1 T75/A; 21 % of wild type with ICAM-1 D71GQS/NGEL; 168 % of wild type in the assay with ICAM-1 A189T/SI; 117 % of wild type in the assay with ICAM-1 Q73/H. Moreover, the “HRV Binding %” value in the assay with ICAM-1 R88V/EA is 152 % of wild type; with ICAM-1 Y66/T, 204 % of wild type; in the assay with ICAM-1 E59/K, 105 % of wild type; with ICAM-1 Y52/FA it was 125 % of wild type; in the assay with ICAM-1 R13/E it was 10 % of wild type; in the assay with ICAM-1 Q62PM/API, 182 % of wild type. In addition, the “HRV Binding %” value was 130 % of wild type in the assay with ICAM-1 T20CS/ACT, 111 % of wild type in the assay with ICAM-1 S61/I, 132 % of wild type with ICAM-1 K8/E and 164 % of wild type in the assay with ICAM-1 G15/SA [4].
